B1: PDI 42 (antibody, V domains shown)
VH: EVQLVESGGGLVQPGGSLRLSCAASGLTVSSNYMSWVRQAPGKGLEWVSVFYPGGSTYNADSVKGRFTISRDNSKNTLYLQMNSLRAEDTAVYYCARDAVYYGMDVWGQGTTVTVSS
VL: not shown
B2: PDI 231 (antibody, V domains shown)
VH: EVQLVESGGGLIQPGGSLRLSCVASGLTVSSNYMNWVRQTPGKGLEWVSVIYSGGSTFYADSVKGRFTISRDNSKNTLFLQMNSLRAEDTAVYYCARVGGYCSSANCVSDVWGKGTTVTVSS
VL: DIQMTQSPSSLSASVGDRVTITCQASQDIRNYLNWYQQKPGKAPKIMIYDASILETGVPSRFSGSGSGTDFTFTISSLQPEDIATYYCQQYDNLPITFGQGTQLEIK
B3: PDI 96 (antibody, V domains shown)
VH: LVQLVQSGAEVKKPGASVKISCKASGYTFTSYYMHWVRQAPGQGLEWMGIINPSGGGTSYAQKFQGRVTMTRDTSTSTVYMELTSLRSDDTAVYYCAKDRVTIFWGNGMDVWGQGTTVTVSS
VL: not shown
B4: REGN10933 (antibody, V domains shown)
VH: QVQLVESGGGLVKPGGSLRLSCAASGFTFSDYYMSWIRQAPGKGLEWVSYITYSGSTIYYADSVKGRFTISRDNAKSSLYLQMNSLRAEDTAVYYCARDRGTTMVPFDYWGQGTLVTVSS
VL: DIQMTQSPSSLSASVGDRVTITCQASQDITNYLNWYQQKPGKAPKLLIYAASNLETGVPSRFSGSGSGTDFTFTISGLQPEDIATYYCQQYDNLPLTFGGGTKVEIKR
B5: REGN10987 (antibody, V domains shown)
VH: QVQLVESGGGVVQPGRSLRLSCAASGFTFSNYAMYWVRQAPGKGLEWVAVISYDGSNKYYADSVKGRFTISRDNSKNTLYLQMNSLRTEDTAVYYCASGSDYGDYLLVYWGQGTLVTVSS
VL: QSALTQPASVSGSPGQSITISCTGTSSDVGGYNYVSWYQQHPGKAPKLMIYDVSKRPSGVSNRFSGSKSGNTASLTISGLQSEDEADYYCNSLTSISTWVFGGGTKLTVLR

Key:
[1] = target: T1, SARS-CoV-2 spike receptor-binding domain (RBD) (SARS-CoV-2, UniProt P0DTC2 319-541); assay: BLI
[2] = target: T1, SARS-CoV-2 spike receptor-binding …; assay: ELISA
SARS-CoV-2 WT RBD = SARS-CoV-2 WT RBD (SARS-CoV-2, UniProt P0DTC2 319-541); assay: BLI
RBD = RBD (SARS-CoV-2, UniProt P0DTC2 319-541); assay: ELISA

Binder | Kd [1] [nM] | IC50 [2] [µg/mL] | Kd (SARS-CoV-2 WT RBD) [nM] | IC50 (RBD) [µg/mL]
B1 | 1.1 | 0.31 | – | –
B2 | 0.38 | 0.328 | – | –
B3 | 2.6 | 0.346 | – | –
B4 | – | – | 3.5 | 0.293
B5 | – | – | 17.6 | 0.298
